Assay results from US7611693B2, “Mechanism-based targeted pancreatic beta cell imaging and therapy” (Board of Regents, The Univerisity of Texas System, priority 2003, dated 2009).

Assays:
[1] = Animal studies: acute toxicity at the given doses; type: in vivo
Text: (§1) The present disclosure addresses at least in part some deficiencies in the prior art by providing novel DTPA-antidiabetic conjugates useful for imaging beta-cell function. Through binding of radiolabeled conjugates, such as ^99mTc-DTPA-antidiabetic conjugates, for example, to pancreatic beta receptors, detectable by gamma scintigraphy, pancreatic function is monitored. Four DTPA-antidiabetic conjugates have been synthesized and evaluated. […] These agents are labeled with isotopes in order to assess beta cell function in diabetic or insulinoma patients both pre- and post-treatment. These compositions and methods are useful to provide early diagnosis as well as monitoring of response of pancreatic disease during treatment.

pancreas [2] = details: rat, in vivo, iv
Text: FIG. 47 is a graphical representation comparing pancreas uptake for ^99mTc-DTPA and ^99mTc-DTPA-NGN in breast tumor-bearing rats (n=3/time interval, 20 μCi, IV, p=0.11, 0.05, and 0.01).
FIG. 48 is a graphical representation of pancreas to muscle count density ratio of ^99mTc-DTPA and ^99mTc-NGN in breast tumor bearing rats (n=3/time interval, μCi/rat, IV, p=0.19, 0.19, and 0.029).
Male (n=4) New Zealand white rabbits (Raynichols Rabbitry, Lumberton, Tex.) were inoculated with VX-2 cells (rabbit driven mammary squamous cell carcinoma). At day 14 post-inoculation, scintigraphic imaging studies were conducted with ^99mTc-DTPA-NGN (1 mCi, iv). Computer outlined region of interest was used to analyze target-to-nontarget ratios.

pancreatic beta cells = assay: Animal studies: selective imaging of pancreatic beta cells; type: in vivo
Text: as §1

pancreas [3] = assay: Scintigraphic imaging in rodents (planar gamma imaging); type: in vivo; details: normal rat and 13762 tumor-bearing rats, 300 μCi via tail vein, FIGS. 36-44
Method: Scintigraphic imaging in rodents was conducted as follows:
Female Fischer 344 rates (150-175 g) (Harlan Sprague-Dawley, Inc., Indianapolis, Ind.) were inoculated subcutaneously in the right leg with breast cancer cells (10^6 cells/rat) from the 13762 NF cell line (known as DMBA-induced breast cancer cell line). Scintigraphic imaging was serially performed on day 14 after inoculation. Planar images were obtained at 0.5, 1 and 2 hours after injection of 300 μCi of ^99mTc-DTPA-NGN or ^99mTc-DTPA-GLP via tail vein. Control groups were given ^99mTc-DTPA. Imaging was conducted with a gamma camera from Digirad (2020tc Imager, San Diego, Calif.) equipped with a low-energy parallel-hole collimator. The field of view is 20 cm×20 cm with an edge of 1.3 cm. The intrinsic spatial resolution is 3 mm and the matrix is 64×64. The system is designed for a planar image with sensitivity of 56 counts/second (cps)/MBq and spatial resolution of 7.6 mm.

## CC(C)[C@H]1CC[C@H](C(=O)N[C@H](Cc2ccccc2)C(=O)NCCNC(=O)CN(CCN(CCN(CC(=O)O)CC(=O)NCCNC(=O)[C@@H](Cc2ccccc2)NC(=O)[C@H]2CC[C@H](C(C)C)CC2)CC(=O)O)CC(=O)O)CC1 [DTPA-nateglinide, DTPA-Nateglinide]
[1]
  acute toxicity: no acute toxicity

## CC(C)[C@H]1CC[C@H](C(=O)N[C@H](Cc2ccccc2)C(=O)NCCNC(=O)CN(CCN(CCN(CC(=O)O)CC(=O)NCCNC(=O)[C@@H](Cc2ccccc2)NC(=O)[C@H]2CC[C@H](C(C)C)CC2)CC(=O)O)CC(=O)O)CC1 [^99mTc-DTPA-nateglinide, metal not drawn]
Pancreas [2]
  pancreas uptake compared with control groups: pancreas uptake was higher than control groups

## DTPA-Glipizide
Pancreatic beta cells
  selective imaging of pancreatic beta cells: able to selectively image pancreatic beta cells

## ^99mTc-DTPA-glipizide
Pancreas [3]
  visualization of pancreas by planar scintigraphy: pancreas could be visualized
